The source of these data is patent US20250066499A1 (SUNSHINE GUOJIAN PHARMACEUTICAL SHANGHAI, published 2025).

One experiment deals with T1, CD73-ND-V144A (human, UniProt P21589 27-317).
T1 construct: Alanine mutant of CD73-ND
T1 sequence: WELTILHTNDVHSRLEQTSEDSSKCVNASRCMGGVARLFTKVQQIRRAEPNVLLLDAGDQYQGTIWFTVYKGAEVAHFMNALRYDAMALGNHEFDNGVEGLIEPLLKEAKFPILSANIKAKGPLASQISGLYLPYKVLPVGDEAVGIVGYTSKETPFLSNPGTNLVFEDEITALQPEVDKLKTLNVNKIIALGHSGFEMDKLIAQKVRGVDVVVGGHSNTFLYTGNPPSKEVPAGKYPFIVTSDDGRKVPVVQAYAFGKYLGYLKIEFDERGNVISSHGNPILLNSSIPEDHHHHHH
Put plainly: ELISA; decline multiple of EC50 against CD73-ND. The method, then:
(§1) The ELISA plates were coated with SA protein diluted to 1.5 μg/mL in coating buffer (50 mM carbonate coating buffer, pH 9.6) and incubated overnight at 4° C. The supernatant was discarded, and the plates were washed three times with PBST. Then, 5% skimmed milk powder prepared with PBS was added for blocking and the plates were incubated for 2 h at 37° C. After washing the plates once with PBST, CD73-biotin protein (prepared by biotinylating CD73-His protein according to the EZ-Link NHS-Biotin Reagent instructions) was diluted to 0.5 μg/mL and added at 100 μL/well for incubation at room temperature for 1 h. The plates were washed three times with PBST, and the prepared murine-derived monoclonal antibodies against human CD73 were serially diluted with 1% BSA buffer prepared with PBST and added to the ELISA plates at 100 μl/well. The plates were incubated at 37° C. for 1 h. After washing the plates three times with PBST, HRP-labeled goat anti-mouse IgG secondary antibody was added and the plates were incubated for 30 min at 37° C. After washing the plates three times with PBST, the residual droplets were patted dry on absorbent paper as much as possible. Then, 100 μl of TMB color developing solution was added to each well, and the plates were incubated in the dark at room temperature for 5 min for color development. Subsequently, 50 μl of 2M H₂SO₄ stop solution was added to each well to terminate the substrate reaction. The OD values were read at 450 nm using a multimode microplate reader to analyze the binding ability of the tested antibodies to the target antigen human CD73-His.
(§2) Referring to the experimental method in Example 3, the affinity of 48A11-HuV33 for various mutant proteins of CD73-ND was determined. The SA protein was diluted to 1 μg/mL for coating the ELISA plates, and the biotinylated CD73 protein (CD73-biotin) was used at a concentration of 0.1 μg/mL.
For orientation: ELISA stands for enzyme-linked immunosorbent assay.

In another experiment the target is T2, CD73-ND-K182A (human, UniProt P21589 27-317).
T2 construct: Alanine mutant of CD73-ND
T2 sequence: T1 sequence with A144V, K182A
Put plainly: ELISA; decline multiple of EC50 against CD73-ND. How it is done: as §1, §2

Another experiment has as its target T3, CD73-ND-K180A (human, UniProt P21589 27-317).
T3 construct: Alanine mutant of CD73-ND
T3 sequence: T1 sequence with A144V, K180A
Briefly: ELISA; decline multiple of EC50 against CD73-ND. The method, then: as §1, §2

The next experiment concerns the target T4, CD73-ND-L181A (human, UniProt P21589 27-317).
T4 construct: Alanine mutant of CD73-ND
T4 sequence: T1 sequence with A144V, L181A
Briefly: ELISA; decline multiple of EC50 against CD73-ND. How it is done:
as §1, §2

The target of the next experiment is T5, CD73-ND-P139A (human, UniProt P21589 27-317).
T5 construct: Alanine mutant of CD73-ND
T5 sequence: T1 sequence with P139A, A144V
Put plainly: ELISA, high plateau value (OD 450 nm). The method, then: as §1, §2

A further experiment deals with T6, CD73-ND-his (human, UniProt P21589 27-317).
T6 construct: Biotinylated and captured on streptavidin in the ELISA
T6 sequence: T1 sequence with A144V
Put plainly: ELISA, high plateau value (OD 450 nm). How it is done:
as §1, §2

Residue numbers refer to the chain shown, from its start.

B1: 48A11-HuV33 (antibody, human IgG4, V domains shown)
VH: QVQLVQSGAEVKKPGASVKVSCKASGYTFTSYWMHWVRQAPGQGLEWIGEINPSIGRTNYNEKFKSRVTLTRDTSTSTAYMELSSLRSEDTAVYYCARRVYGTMDYWGQGTLVTVSS
VL: DIQMTQSPSSLSASVGDRVTITCKASQDINSYLSWFQQKPGKSPKLLIYRANIWVDGVPSRFSGSGSGQDYTFTISSLQPEDIATYYCLQYDELYTFGQGTKVEIK
notes: Humanized
For B1, the “Ratio(EC50)” value turned out to be 2.5 fold with CD73-ND-V144A, 1 fold with CD73-ND-K182A, 2.7 fold in the experiment with CD73-ND-K180A and 1.9 fold with CD73-ND-L181A. Further, the Top came out at 0.871 with CD73-ND-P139A and 2 in the experiment with CD73-ND-his.
